Measured values published in patent publication US9663561B2, “Methods of treatment of cancer using SRC-modulating peptides” (The University of Toledo, priority 2006, dated 2017).

Columns and labels:
[1] = target: T1, Na+/K+-ATPase/Src complex (Sus scrofa, UniProt P05024); assay: Src pY418 phosphorylation of the Na+/K+-ATPase/Src complex (Western blot); assay type: biochemical; details: 5 μg GST fusion preincubated with 2 μg Na+/K+-ATPase before adding Src (4.5 U)
T1 construct: Na+/K+-ATPase was purified from pig kidney outer medulla using the Jorgensen method; tissue Upstate Biotechnology (Src only); host or cells: pig kidney outer medulla (Na+/K+-ATPase)
Experimental: The Src kinase activity was assayed using a commercial kit (Haas et al., 2000). To determine how Na+/K+-ATPase affects Src kinase activity, the purified Src (4.5 U) was incubated with 5 μg of the purified Na+/K+-ATPase in the Src assay buffer for 30 min at room temperature. Afterward, both control Src or the Na+/K+-ATPase-bound Src were exposed to 10 μM ouabain and Src kinase activity was determined. In other experiments, the Src pY418 was measured by anti-pY418 antibody to indicate Src activation (Ma et al., 2000). To do so, the purified Src (4.5 U) was incubated with different amounts of the purified Na+/K+-ATPase or GST-Na+/K+ATPase constructs in phosphate-buffered saline (PBS) for 30 min at 37° C. Afterward, 2 mM ATP/Mg2+ was added. The reaction continued for 5 min at 37° C. and was stopped by addition of SDS sample buffer.
The purified Na+/K+-ATPase was solubilized in 1% Triton X-100 PBS and centrifuged at 100,000×g for 30 min. The supernatant was collected for the binding assay. GST-fusion proteins (5 μg) were conjugated on glutathione beads and incubated with the solubilized Na+/K+-ATPase in 500 μl PBS in the presence of 0.5% Triton X-100 at room temperature for 30 min. The beads were washed with the same buffer for four times. The bound Na+/K+ATPase was resolved on 10% SDS-PAGE and detected by Western blot. […]

purified Na+/K+-ATPase = target: T2, purified Na+/K+-ATPase (Sus scrofa, UniProt P05024); assay: In vitro GST pulldown binding assay with purified Na+/K+-ATPase; set-up: species or system pig; details: 2 μg purified Na+/K+-ATPase per assay
T2 construct: Na+/K+-ATPase was purified from pig kidney outer medulla using the Jorgensen method; from tissue; host or cells: pig kidney outer medulla
Experimental: The purified Na+/K+-ATPase was solubilized in 1% Triton X-100 PBS and centrifuged at 100,000×g for 30 min. The supernatant was collected for the binding assay. GST-fusion proteins (5 μg) were conjugated on glutathione beads and incubated with the solubilized Na+/K+-ATPase in 500 μl PBS in the presence of 0.5% Triton X-100 at room temperature for 30 min. The beads were washed with the same buffer for four times. The bound Na+/K+ATPase was resolved on 10% SDS-PAGE and detected by Western blot. Reciprocal binding assay using GST-Na+/K+-ATPase constructs (5 μg) and purified Src lacking of first 85 amino acids (200 ng) or His-tagged Src constructs (100 ng) was done similarly. To test if native Na+/K+-ATPase binds Src, the above experiments were repeated in the absence of Triton X-100. To make the Na+/K+-ATPase/Src complex, 2-5 μg of the purified Na+/K+ATPase was incubated with 4.5 U of Src (˜10 ng) in PBS in the absence of Triton X-100 at room temperature for 30 min. The complex was either used for the experiments directly as indicated or collected by centrifugation at 100,000×g for 30 min.

Src = target: T3, Src (Sus scrofa, UniProt K7GM45); assay: GST-CD3 pulldown of Src from LLC-PK1 cell lysates; assay type: binding, pig; details: 1 mg LLC-PK1 cell lysates
T3 construct: endogenous in cells; host or cells: LLC-PK1 (pig kidney)
Experimental: FIG. 4C. A Western blot showing that Src was pulled down by GST-CD3 of Na+/K+-ATPase (Na/K) and H+/K+-ATPase (H/K), but not SERCA from 1 mg LLC-PK1 cell lysates.
Cells were lysed in RIPA buffer containing 1% Nonidet P40, 0.25% sodium deoxycholate, 150 mM NaCl, 1 mM EDTA, 1 mM phenylmethylsulfonyl fluoride, 1 mM sodium orthovanadate, 1 mM NaF, 10 μg/ml aprotinin, 10 μg/mlleupeptin, and 50 mM Tris-HCl (pH 7.4). Cell lysates were cleared by centrifugation at 16,000×g for […], and the supernatants (1 mg) were either immunoprecipitated with anti-α1 antibody or incubated with different GST-fusion proteins. The complexes were then pulled down by either protein G agarose or glutathione beads (Ma et al., 2000; Haas et al., 2002) and analyzed by Western blot.

| Molecule | Src pY418 in presence of Na+/K+-ATPase [1] | binding to the Na+/K+-ATPase (purified Na+/K+-ATPase) | pulldown of Src from LLC-PK1 cell lysates (Src) |
| --- | --- | --- | --- |
| GST-kinase: GST fusion of Src kinase domain (protein, left off: a dimerising Fc or GST, GST fusion of Src kinase domain) QTQGLAKDAWEIPRESLRLEVKLGQGCFGEVWMGTWNGTTRVAIKTLKPGTMSPEAFLQEAQVMKKLRHEKLVQLYAVVSEEPIYIVTEYMSKGSLLDFLKGEMGKYLRLPQLVDMAAQIASGMAYVERMNYVHRDLRAANILVGENLVCKVADFGLARLIEDNEYTARQGAKFPIKWTAPEAALYGRFTIKSDVWSFGILLTELTTKGRVPYPGMVNREVLDQVERGYRMPCPPECPESLHDLMCQCWRKDPEERPTFEYLQAFLEDYFTSTEPQYQPGENL | significantly increased Src pY418 | Binding | – |
| GST-SERCA-CD3: GST fusion of the CD3 from rat heart SERCA 2a (protein) GTRRMAKKNAIVRSLPSVETLGCTSVICSDKTGTLTTNQMSVCRMFILDKVEGDTCSLNEFTITGSTYAPIGEVQKDDKPVKCHQYDGLVELATICALCNDSALDYNEAKGVYEKVGEATETALTCLVEKMNVFDTELKGLSKIERANACNSVIKQLMKKEFTLEFSRDRKSMSVYCTPNKPSRTSMSKMFVKGAPEGVIDRCTHIRVGSTKVPMTPGVKQKIMSVIREWGSGSDTLRCLALATHDNPLRREEMHLEDSANFIKYETNLTFVGCVGMLDPPRIEVASSVKLCRQAGIRVIMITGDNKGTAVAICRRIGIFGQDEDVTSKAFTGREFDELSPSAQRDACLNARCFARVEPSHKSKIVEFLQSFDEITAMTGDGVNDAPALKKSEIGIAMGSGTAVAKTASEMVLADDNFSTIVAAVEEGRAIYNNMKQFIRYLISSNV | – | – | not |
| GST-SH2: GST fusion of Src SH2 domain (protein, left off: a dimerising Fc or GST, GST fusion of Src SH2 domain) WYFGKITRRESERLLLNPENPRGTFLVRESETTKGAYCLSVSDFDNAKGLNVKHYKIRKLDSGGFYITSRTQFSSLQQLVAYYSKHADGLCHRLTNVC | – | Binding | – |
